Source: publication PMC10641520 (The Journal of Biological Chemistry, 2023)

Assays:
AUC [1] = target: the molecule itself; assay: AUC
AUC [2] = target: the molecule itself; assay: AUC; remark: listed apart in the source

B1: Acinetobacter baumannii TIR domain protein (AbTir-TIR^wt, aa134-269) (domain or fragment, UniProt A0A009IHW8 134-269, looked up)
chain: EYDLFISHASEDKEDFVRPLAETLQQLGVNVWYDEFTLKVGDSLRQKIDSGLRNSKYGTVVLSTDFIKKDWTNYELDGLVAREMNGHKMILPIWHKITKNDVLDYSPNLADKVALNTSVNSIEEIAHQLADVILNR
stoichiometry N (AUC [1]): 2
Kd (AUC [2]): 1400 nM
